Experimental data taken from paper PMC4437028 (2015).

B1: mouse PTPδ Ig1-Fn1 (residues 28-418), splice variant meA9B+ [modified: N-linked glycans] [mouse] / mouse Slitrk2 LRR1 (first leucine-rich repeat of Slit and Trk-like family member 2), wild type [modified: N-linked glycans; N-linked … (parent complex)
chain 1: ETPPRFTRTPVDQTGVSGGVASFICQATGDPRPKIVWNKKGKKVSNQRFEVIEFDDGSGSVLRIQPLRTPRDEAIYECVASNNVGEISVSTRLTVLREDQIPRGFPTIDMGPQLKVVERTRTATMLCAASGNPDPEITWFKDFLPVDTSNNNGRIKQLRSESIGGTPIRGALQIEQSEESDQGKYECVATNSAGTRYSAPANLYVRELREVRRVPPRFSIPPTNHEIMPGGSVNITCVAVGSPMPYVKWMLGAEDLTPEDDMPIGRNVLELNDVRQSANYTCVAMSTLGVIEAIAQITVKALPKPPGTPVVTESTATSITLTWDSGNPEPVSYYIIQHKPKNSEEPYKEIDGIATTRYSVAGLSPYSDYEFRVVAVNNIGRGPASEPVLTQK
chain 2: MLSGVWFLSVLTVAGILQTESRKTAKDICKIRCLCEEKENVLNINCENKGFTTVSLLQPPQYRIYQLFLNGNLLTRLYPNEFVNYSNAVTLHLGNNGLQEIRPGAFSGLKTLKRLHLNNNKLEVLREDTFLGLESLEYLQADYNYISTIEAGAFSKLNKLKVLILNDNLLLSLPSNVFRFVLLTHLDLRGNRLKVMPFAGVLEHIGGIMEIQLEENPWNCTCDLLPLKAWLDTITVFVGEIVCETPFRLHGKDVTQLTRQDLCPRK

Variants of: B1
Assay: SPR equilibrium analysis; point at 4 µM PTPδ Ig1-Fn1 (highest concentration); parent: 600; read off a plot

Variant | response [Response unit]
chain 2 MLSGVWFLSVLTVAGILQTESRKTAKDICKIRCLCEEKENVLNINCENKGFTTVSLLQPPQYRIYQLFLNGNLLTRLYPNEFVNYSNAVTLHLGNNGLQEIRPGAFSGLKTLKRLHLNNNKLEVLREDTFLGLESLEYLQADYNYISTIEAGAFSKLNKLKVLILNANLLLSLPSNVFRFVLLTHLDLRGNRLKVMPFAGVLEHIGGIMEIQLEENPWNCTCDLLPLKAWLDTITVFVGEIVCETPFRLHGKDVTQLTRQDLCPRK [chain 2 D167A] | ~100
chain 2 MLSGVWFLSVLTVAGILQTESRKTAKDICKIRCLCEEKENVLNINCENKGFTTVSLLQPPQYRIYQLFLNGNLLTRLYPNEFVNYSNAVTLHLGNNGLQEIRPGAFSGLKTLKRLHLNNNKLEVLREDTFLGLESLEYLQADYNYISTIEAGAFSKLNKLKVLILNDNLLLSLPSNVFRFVLLTHLDLRGNRLKVMPFAGVLEHIGGIMEIQLEANPWNCTCDLLPLKAWLDTITVFVGEIVCETPFRLHGKDVTQLTRQDLCPRK [chain 2 E215A] | ~210
chain 2 MLSGVWFLSVLTVAGILQTESRKTAKDICKIRCLCEEKENVLNINCENKGFTTVSLLQPPQYRIYQLFLNGNLLTRLYPNEFVNYSNAVTLHLGNNGLQEIRPGAFSGLKTLKRLHLNNNKLEVLREDTFLGLESLEYLQADYNYISTIEAGAFSKLNKLKVLILNDNLLLSLPSNVFRFVLLTHLDLRGNRLKVMPFAGVLEHIGGIMEIQLEENPWNCTCDLLPLKAWLDTITVFVGEIVCETPARLAGKDVTQLTRQDLCPRK [chain 2 F247A, chain 2 H250A] | ~460
chain 2 MLSGVWFLSVLTVAGILQTESRKTAKDICKIRCLCEEKENVLNINCENKGFTTVSLLQPPQYRIYQLFLNGNLLTRLYPNEFVNYSNAVTLHLGNNGLQEIRPGAFSGLKTLKALHLNNNKLEVLREDTFLGLESLEYLQADYNYISTIEAGAFSKLNKLKVLILNDNLLLSLPSNVFRFVLLTHLDLRGNRLKVMPFAGVLEHIGGIMEIQLEENPWNCTCDLLPLKAWLDTITVFVGEIVCETPFRLHGKDVTQLTRQDLCPRK [chain 2 R114A] | ~490
chain 2 MLSGVWFLSVLTVAGILQTESRKTAKDICKIRCLCEEKENVLNINCENKGFTTVSLLQPPQYRIYQLFLNGNLLTRLYPNEFVNYSNAVTLHLGNNGLQEIRPGAFSGLKTLKRLHLNNNKLEVLREDTFLGLESLEYLQADYNYISTIEAGAFSKLNKLKVLILNDNLLLSLPSNVFRFVLLTHLALRGNRLKVMPFAGVLEHIGGIMEIQLEENPWNCTCDLLPLKAWLDTITVFVGEIVCETPFRLHGKDVTQLTRQDLCPRK [chain 2 D187A] | ~120
